These substances were tested against phosphorylated JAK2 (UniProt O60674) (assay: co-immunoprecipitation (IP p-JAK2, IB c-Mpl) with densitometry). Conditions: HEK293T cells; 20 ng/mL TPO stimulation; parent: est. 1.3; read off a plot.
Chain of UniProt O60674 (O60674 whole entry, canonical isoform): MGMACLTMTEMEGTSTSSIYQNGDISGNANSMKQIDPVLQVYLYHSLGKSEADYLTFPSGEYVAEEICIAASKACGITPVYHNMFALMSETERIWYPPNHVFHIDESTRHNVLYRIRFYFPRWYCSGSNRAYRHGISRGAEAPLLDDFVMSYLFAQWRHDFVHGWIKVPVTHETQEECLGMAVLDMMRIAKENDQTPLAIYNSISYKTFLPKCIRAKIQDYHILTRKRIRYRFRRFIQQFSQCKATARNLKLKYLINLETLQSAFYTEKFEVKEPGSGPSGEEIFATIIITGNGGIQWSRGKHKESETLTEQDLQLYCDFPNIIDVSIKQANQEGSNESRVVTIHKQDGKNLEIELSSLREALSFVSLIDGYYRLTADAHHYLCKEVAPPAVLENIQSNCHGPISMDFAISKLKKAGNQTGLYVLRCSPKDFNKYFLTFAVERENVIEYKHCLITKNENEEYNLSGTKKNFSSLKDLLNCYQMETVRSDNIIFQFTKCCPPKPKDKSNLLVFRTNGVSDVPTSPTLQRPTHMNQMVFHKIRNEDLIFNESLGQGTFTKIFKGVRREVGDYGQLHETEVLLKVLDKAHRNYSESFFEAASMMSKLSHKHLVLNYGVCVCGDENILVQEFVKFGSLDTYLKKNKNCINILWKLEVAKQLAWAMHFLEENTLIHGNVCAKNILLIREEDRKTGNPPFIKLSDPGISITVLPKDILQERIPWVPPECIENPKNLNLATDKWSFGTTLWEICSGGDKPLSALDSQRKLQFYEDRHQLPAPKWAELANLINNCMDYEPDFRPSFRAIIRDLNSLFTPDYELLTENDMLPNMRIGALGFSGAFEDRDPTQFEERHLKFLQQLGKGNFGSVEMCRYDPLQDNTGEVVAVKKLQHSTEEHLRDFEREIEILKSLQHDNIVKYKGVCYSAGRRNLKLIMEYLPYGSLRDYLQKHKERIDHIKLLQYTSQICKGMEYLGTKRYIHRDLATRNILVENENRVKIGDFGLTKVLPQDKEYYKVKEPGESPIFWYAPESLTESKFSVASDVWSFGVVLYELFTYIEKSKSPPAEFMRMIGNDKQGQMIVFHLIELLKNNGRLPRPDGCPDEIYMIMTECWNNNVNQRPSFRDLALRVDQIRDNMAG
“c-Mpl-del (c-Mpl alternative splicing isoform with a 24 amino acid deletion in the extracellular region) Y607F” showed a response of 0.18. “c-Mpl-del (c-Mpl alternative splicing isoform with a 24 amino acid deletion in the extracellular region) Y567F” was tested, and the response was 0.54. With “c-Mpl-del (c-Mpl alternative splicing isoform with a 24 amino acid deletion in the extracellular region) Y602F” the response was 0.44.

— PMC9561678
